Source: patent US5981262

Biological target: phosphopeptide of SEQ ID NO: 32, containing the PI3K ligand pY.V.P.M.L. (SEQ ID NO: 31)
Experiment: SPR (BIAcore); phosphopeptide immobilized via its C-terminal lysine, SH2 peptide injected at 0.5, 0.67, 1.0, 2.0 and 4.0 uM

Ka (binding affinity, printed in nM): 160 nM
Substance: N-terminal SH2 peptide of the PI3K p85
